Values of other authors, collected in paper PMC9346034.

Experiments:
Hsp70 (Homo sapiens) = Hsp70 (Homo sapiens) (UniProt P0DMV8)
DnaK (Escherichia coli) = DnaK (Escherichia coli) (UniProt P0A6Y8)
DnaK (Escherichia coli), sequence (P0A6Y8 2-638): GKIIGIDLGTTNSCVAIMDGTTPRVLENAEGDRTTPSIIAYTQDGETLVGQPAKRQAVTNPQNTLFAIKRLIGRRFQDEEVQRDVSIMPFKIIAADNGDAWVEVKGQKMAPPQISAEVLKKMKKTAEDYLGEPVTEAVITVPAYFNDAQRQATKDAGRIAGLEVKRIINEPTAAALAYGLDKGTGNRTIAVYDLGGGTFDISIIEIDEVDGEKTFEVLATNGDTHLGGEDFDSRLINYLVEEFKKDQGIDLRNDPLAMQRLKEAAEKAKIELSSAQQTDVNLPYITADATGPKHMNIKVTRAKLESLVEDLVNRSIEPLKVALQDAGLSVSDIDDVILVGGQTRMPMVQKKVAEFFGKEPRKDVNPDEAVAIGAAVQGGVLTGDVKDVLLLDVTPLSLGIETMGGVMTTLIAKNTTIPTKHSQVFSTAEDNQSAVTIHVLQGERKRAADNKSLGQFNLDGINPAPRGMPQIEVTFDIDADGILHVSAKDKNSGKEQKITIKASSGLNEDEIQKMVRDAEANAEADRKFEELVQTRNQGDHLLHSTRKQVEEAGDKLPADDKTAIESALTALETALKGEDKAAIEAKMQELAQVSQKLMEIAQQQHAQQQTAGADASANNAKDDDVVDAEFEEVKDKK

Bag3-ΔBag ΔBag, sequence (O95817 2-420, stated change not applied): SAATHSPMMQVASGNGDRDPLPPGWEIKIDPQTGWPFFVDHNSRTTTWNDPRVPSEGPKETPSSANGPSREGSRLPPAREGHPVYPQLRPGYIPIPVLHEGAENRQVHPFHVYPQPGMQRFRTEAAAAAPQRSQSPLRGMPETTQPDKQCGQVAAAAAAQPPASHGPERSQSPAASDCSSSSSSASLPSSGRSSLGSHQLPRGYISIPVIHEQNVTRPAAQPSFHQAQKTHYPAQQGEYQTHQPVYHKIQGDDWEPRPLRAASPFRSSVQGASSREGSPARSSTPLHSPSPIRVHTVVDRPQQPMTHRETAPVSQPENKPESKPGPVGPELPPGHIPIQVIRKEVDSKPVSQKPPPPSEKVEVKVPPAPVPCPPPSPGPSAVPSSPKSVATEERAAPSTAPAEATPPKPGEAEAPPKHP
Bag3-ΔBag ΔBag, sequence (O95817 499-575, stated change not applied): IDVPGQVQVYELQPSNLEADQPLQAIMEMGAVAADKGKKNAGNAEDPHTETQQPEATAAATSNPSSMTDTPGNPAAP
DnaJ, sequence (P08622 2-376): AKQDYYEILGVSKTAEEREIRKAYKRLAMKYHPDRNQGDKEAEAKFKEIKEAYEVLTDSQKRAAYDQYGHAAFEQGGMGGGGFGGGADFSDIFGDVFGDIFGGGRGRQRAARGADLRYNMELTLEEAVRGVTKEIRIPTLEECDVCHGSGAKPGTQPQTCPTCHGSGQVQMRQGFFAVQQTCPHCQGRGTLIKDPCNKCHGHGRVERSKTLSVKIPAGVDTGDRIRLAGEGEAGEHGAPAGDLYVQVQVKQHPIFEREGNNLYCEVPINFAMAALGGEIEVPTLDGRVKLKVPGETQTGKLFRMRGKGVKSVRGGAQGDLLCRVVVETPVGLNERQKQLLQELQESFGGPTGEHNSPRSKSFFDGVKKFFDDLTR
Hsp70 (Homo sapiens), sequence (P0DMV8 2-641): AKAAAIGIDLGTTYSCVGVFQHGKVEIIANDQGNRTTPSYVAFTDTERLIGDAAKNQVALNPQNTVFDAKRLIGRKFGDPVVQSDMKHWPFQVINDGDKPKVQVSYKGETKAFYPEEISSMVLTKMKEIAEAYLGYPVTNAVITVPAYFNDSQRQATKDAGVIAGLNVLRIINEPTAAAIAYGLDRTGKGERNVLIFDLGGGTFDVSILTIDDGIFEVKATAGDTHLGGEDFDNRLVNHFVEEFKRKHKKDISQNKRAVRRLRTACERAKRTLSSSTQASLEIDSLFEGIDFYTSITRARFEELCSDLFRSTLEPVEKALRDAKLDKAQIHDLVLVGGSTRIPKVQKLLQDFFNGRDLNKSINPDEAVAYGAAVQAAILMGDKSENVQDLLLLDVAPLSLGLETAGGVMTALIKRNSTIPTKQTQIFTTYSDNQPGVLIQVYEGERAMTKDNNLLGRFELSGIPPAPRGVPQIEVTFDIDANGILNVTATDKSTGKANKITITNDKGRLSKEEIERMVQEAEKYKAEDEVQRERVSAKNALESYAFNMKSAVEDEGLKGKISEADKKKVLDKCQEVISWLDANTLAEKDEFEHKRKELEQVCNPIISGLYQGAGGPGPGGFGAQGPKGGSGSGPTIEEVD

Kd (Hsp70 (Homo sapiens)) [µM] | Kd (DnaK (Escherichia coli)) [µM] | Substance
10 |  | Bag3-ΔBag ΔBag (from UniProt O95817)
 | 3.6 | DnaJ (from UniProt P08622)
